Results taken from patent US20260176377A1 (Hoffmann-La Roche, published 2026).
Substitutions are numbered along the chain they refer to.

B1: IL-7Rα_1 VHH (VHH)
VHH: QVQLVESGGGLVQPGGSLRLSCAASGFTFSQRIMSWYRQAPGKERELVASISPFGDGTRYADSVKGRFTISRDNARNQLYLQMNTLKPEDTAVYYCNKRNLEISDDWGQGTQVTVSS
notes: soluble VHH, detected with anti-His antibody
B2: IL-7Rα_14 VHH (VHH)
VHH: B1 VHH with I51V, R76K, N77S, T85N, P88F, D106A
notes: as for B1
B3: IL-7Rα_5 VHH (VHH)
VHH: B1 VHH with R45H, T85S, K87E, P88F, E102D, I103V
notes: as for B1
B4: IL-7Rα_7 VHH (VHH)
VHH: QVQLVESGGGLVQPGGSLRLSCAASGFTFSNYAMSWYRQAPGKERELVASISVFGGGTNYADSVKGRFTISRDNAKNTVYLQMNSLKPEDSAVYYCNKRRYDDYWGQGTQVTVSS
notes: as for B1
B5: IL-7Rα_8 VHH (VHH)
VHH: QVQLVESGGGLVQPGGSLRLSCAASGFTISSWSMKWVRQAPGKGPEWVSYISPGGGSLDYLDSVKGRFTISRDNAKNTVYLQMSNLKSEDTALYWCATGTGPTRGQGTQVTVSS
notes: as for B1
B6: IL-7Rα_12 VHH (VHH)
VHH: B5 VHH with W32R, S57T, L58V, L61Q, Q106R
notes: as for B1
B7: IL-7Rα_9 VHH (VHH)
VHH: B5 VHH with S31T, G56T, L61Q, S84N, P102E
notes: as for B1
B8: IL-7Rα_15 VHH (VHH)
VHH: B5 VHH with L61H, D62H, K76R, K87Q, P102E
notes: as for B1
B9: IL-7Rα_11 VHH (VHH)
VHH: B5 VHH with A23E, L61H, D62H, K76R, K87Q, P102E
notes: as for B1
B10: IL-7Rα_4 VHH (VHH)
VHH: QVQLVESGGGLVQPGGSLRLSCTTSGFTFTTYAMKWVRQAPGKGLEWVAFISPAGGITDYADSVKGRFTISRDNAKETLYLRMDSLKPEDTAVYYCARGDSDTNNNRGQGTQVTVSS
notes: as for B1
B11: IL-7Rα_2 VHH (VHH)
VHH: QVQLVESGGGLVQPGGSLRLSCEVSGIRFSLRNMHWYRQASGRQREWVATITAGGVTGYRDSVKGRFTISRDNAKNTVDLQMNGLQLEDTAVYYCNHGDTAYWGQGTQVTVSS
notes: as for B1
B12: IL-7Rα_13 VHH (VHH)
VHH: B11 VHH with Q13R, S21A, E23A, V24A
notes: as for B1

target: T1, extracellular domain (ECD) of human IL-7Rα fused to biotinylated Fc knob-into-hole (P1AI1009) (human, UniProt P0DOX5 223-448 = IgG part, biotinylated at C-terminal AviTag); experiment: ELISA, soluble VHH supernatants on neutravidin plates with biotinylated IL-7Rα-Fc versus biotinylated Fc, anti-His-HRP
T1 construct: also called human IL-7Rα-Fc; human IL-7Rα antigen
Description: Round 3 and round 4 enrichment libraries were screened for target specificity vs Fc specificity by ELISA. Individual VHH clones were expressed in 1 ml E. coli cultures in a 96-well plate and supernatants containing soluble VHH were screened for specificity by ELISA. Supernatants were transferred to neutravidin 96-well plates coated with biotinylated Fc (P1AE6073) or target Fc-tagged biotinylated antigen (P1AI1009). Following incubation for 1 hour at 20° C., plates were washed 3 times with PBST and 3 times with PBS. HRP-conjugated anti-His antibody (Sigma, Cat. No: A7058) was added to wells at 1:2000 dilution and plates were incubated for 1 hour at 20° C. Plates were washed 3 times with PBST followed by 3 washes with PBS. Plates were developed by adding 1-Step Ultra TMB-ELISA substrate (Thermo Fisher Scientific, Cat. No: 34028) and reactions were quenched with sulfuric acid. Absorbance at 450 nm was measured using a Tecan infinite M1000 Pro and reference absorbance values were measured at 650 nm. Reference-subtracted absorbance values at 450 nm were represented as stacked bar charts for round 3 library 1 and library 2 (FIG. 40A and B, respectively) and round 4 library 1 and library 2 (FIG. 40C and D, respectively). […] 16 target-specific VHH were selected and subsequently cloned into bispecific heavy chain antibody formats.

Binding result, binds:
B1, B2, B3, B4, B5, B6, B7, B8, B9, B10, B11, B12
